Test results reported in US20260327578A1, “TRANSGLUTAMINASES AND USES THEREOF” (CURIE CO. INC., priority 2023, published 2026).

How the values were obtained:
E. coli = assay: Preservative efficacy in body lotion against E. coli; assay type: cell-based; conditions: 0.005% in combinations, phenoxyethanol 0.7% alone, 0.3% combined, caprylyl glycol 0.7% alone, 0.35% combined, sodium benzoate 0.5% + EDTA 0.5%, 2% 2:1 propanediol:hexanediol, 0.5% CHA solution
Procedure: A vessel was filled with deionized water, placed under an overhead stirrer set to moderate mixing, and heated to 75-80° C. Glycerin was added to 2% and mixed until dissolved, followed by xanthan gum to 0.2%. At 75-80° C., cetearyl glucoside and cetearyl alcohol were added to 4% and 3%. Once both had melted fully, milk thistle seed oil was added and the batch was homogenized with a Silverson homogenizer with the standard emulsion screen until the batch had turned milky white. The batch was removed from heat and returned to propellor mixing with decreased speed to allow the emulsion to set up. At 40° C., pH was adjusted to pH 5.5-6.0 using citric acid or sodium hydroxide and split into several portions and allowed to finish cooling. Once cooled to room temperature, one portion of the body lotion was left unpreserved and the remaining portions were preserved with one or more substances selected from aseptilase, phenoxyethanol, caprylyl glycol, sodium benzoate, and EDTA. All samples were inoculated with E. coli (10^6 CFU/mL) and C. albicans (10^5 CFU/mL) and plated after 2 and 7 days.

N,N-dimethylcasein = assay: Productivity: total product formed after 24 hours (protein functionalization assay); assay type: biochemical; conditions: improvement relative to wild-type Tgase (SEQ ID NO: 2); total product after 24 h
Procedure: Enzymatic “productivity” is a measure of product formation or substrate disappearance over time, at a prescribed temperature under specified reaction conditions. It is the measure both the durability and reaction yield of the enzyme variant. In this instance, productivity is defined as total product formed over 24-hours at a constant substrate concentration when the enzyme is the rate limiting factor. The time is defined as 24 hours, which represents approaching or surpassing burnout, denaturation, or self-reaction of the enzyme variant. In other words, variants with higher productivity deliver a higher product yield in 24-hours than variants with lower productivity produce in the same period of time. “Rate” refers to the initial rate for an enzymatic reaction, at a prescribed temperature under specified reaction conditions. The enzyme produces product at an initial rate that is approximately linear for a short period after the start of the reaction. When concentrations of enzyme and substrate are the same across the sample set, initial rates between enzyme variants can be compared. In this instance, the linear range for production of product occurs in one hour. Enzyme variants with faster initial rates deliver a higher product yield in one hour than variants with slower initial rates produce at the same time-period. In some cases, improvements to initial rates also deliver a more productive variant. In some cases, improvements to initial rates result in faster decay of the enzyme variant reducing overall enzymatic productivity. Productivity and rate may be assessed as described in Example 2.
Table 6 depicts variants of Streptomyces mobaraensis Tgase and improvement to productivity and/or rate relative to wild-type Tgase (SEQ ID NO. 2) as determined in Example 3. Numbering of amino acid positions is in reference to the mature S. mobaraensis Tgase sequence depicted in SEQ ID NO. 2. A “−” indicates a reduction in activity. A “+” indicates an improvement between 1.2 and 2-fold. A “++” indicates an improvement between 2 and 5-fold. A “+++” indicates an improvement greater than 5-fold.
To evaluate productivity, total product formed was measured after 24-hours of incubation, using the assay described in Example 4B. The time is defined as 24 hours which represents approaching or surpassing burnout, denaturation, or self-reaction of the enzyme variant.
Protein functionalization by Tgase variants was determined by the fluorogenic labeling of casein using monodansylcadaverine (e.g., a commercially available kit such as the Transglutaminase Fluorogenic Activity Assay Kit, T036, Zedira, Germany). Tgase activity was monitored by measuring fluorescence (excitation wavelength 332 nm; emission wavelength 500 nm) using a BioTek Synergy H1 microplate reader. Transglutaminase-catalyzed covalent coupling (crosslinking) of monodansylcadaverine with N,N-dimethylcasein produces a product that causes a shift in intensity and wavelength of fluorescence of the dansyl group now linked to the casein. The relative transglutaminase activity is shown by increase of fluorescence intensity over time. Enzyme variant loading was optimized based on expression levels, ensuring enzyme was the rate limiting factor. Briefly, cell-free reactions (set up as described in Example 2A) were first diluted 10-fold using phosphate buffer, pH 7.4, and a 5 microliter aliquot was analyzed.

E. coli (ATCC 8739) = assay: MIC determination against E. coli; assay type: cell-based
Procedure: (§1) E. coli (ATCC 8739) and C. albicans (ATCC 10231) were acquired from the American Type Culture Collection (ATCC) (Manassas, VA) and maintained as −80° C. frozen glycerol stocks.
(§2) The following day, the cell density of the saturated cultures was calculated using OD600 and cultures were diluted to 104 to 10^6 CFU/mL in sterile Mueller Hinton broth to generate the inoculum, and 100 μL of the inoculum was combined with 100 μL of serially diluted Tgase variant A3 (SEQ ID NO: 4) at a range of 0.0001-0.05 weight percent. Growth curves were measured by OD600 on a BioTek® Synergy Plate Reader. All test conditions were performed in triplicate. MIC was determined to be […] (0.005% w/v) against E. coli for the enzyme described in SEQ ID NO: 4 using OD600.

[1] = system: E. coli (ATCC 8739) / C. albicans (ATCC 10231); assay: MIC of permeabilizer co-dosants with and without Tgase variant; assay type: cell-based
Procedure: as §1, §2
For MIC determination of yeast cultures, C. albicans (ATCC 10231) was grown overnight (24 hours) in Sabouraud Dextrose broth at 30° C. The following day, the cell density of the saturated cultures was calculated using OD600 and cultures were diluted to 104 to 10^6 CFU/mL in sterile Sabouraud Dextrose broth media to generate the inoculum, and 100 μL of the inoculum was combined with 100 μL of serially diluted Tgase variant at a range of 0.0001-0.05 weight percent. The cultures were grown overnight at 30° C. and growth curves were measured by OD600 on a BioTek® Synergy Plate Reader. All test conditions were performed in triplicate. MIC was determined to be […] (0.005% w/v) against C. albicans for the enzyme described in SEQ ID NO: 4 using OD600.
Aseptilase activities of Tgase variant A3 (SEQ ID NO: 4) in combination with each of the three permeabilizer co-dosants, polymyxin B, chlorhexidine, and a 10000:4000:1 mixture by weight of sodium hexametaphosphate, phytic acid and chlorhexidine, were tested. […] The experiments were performed as described in Example 5. The co-dosants were added into Tgase variant A3 (SEQ ID NO: 4) solutions at concentrations of 0.125 g/L, 0.05 g/L, and 350 mM, respectively. The results are shown in Table 12 with Tgase concentrations reported within the table at the best MIC.

B1: A3: Tgase variant S2P Q50S Q74A K91H Q124L K151R K152R N282M G283A relative to SEQ ID NO: 2 (protein, UniProt P81453 77-407, looked up, variant S2P Q50S Q74A K91H Q124L K151R K152R N282M G283A)
Protein-glutamine …: DPDDRVTPPAEPLDRMPDPYRPSYGRAETVVNNYIRKWQQVYSHRDGRKSQMTEEQREWLSYGCVGVTWVNSGAYPTNRLAFASFDEDRFHNELKNGRPRSGETRAEFEGRVAKESFDEEKGFLRAREVASVMNRALENAHDESAYLDNLRRELANGNDALRNEDARSPFYSALRNTPSFKERNGGNHDPSRMKAVIYSKHFWSGQDRSSSADKRKYGDPDAFRPAPGTGLVDMSRDRNIPRSPTSPGEGFVNFDYGWFGAQTEADADKTVWTHGNHYHAPMASLGAMHVYESKFRNWSEGYSDFDRGAYVITFIPKSWNTAPDKVKQGWP
Preservative efficacy against E. coli, log reduction (E. coli; day 2, aseptilase 0.01% alone): 1.71 log reduction in CFU/mL
Preservative efficacy against E. coli, log reduction (E. coli; day 7, aseptilase 0.01% alone): 3.45 log reduction in CFU/mL
Productivity (N,N-dimethylcasein): + (an improvement between 1.2 and 2-fold)
MIC (E. coli (ATCC 8739); OD600): 200 ppm
MIC (E. coli (ATCC 8739); OD600, printed in brackets after the ppm value): 0.005 % w/v
Aseptilase activity in combination with permeabilizers ([1]; co-dosed with polymyxin B, chlorhexidine, or hexametaphosphate/phytic acid/chlorhexidine): further improved by co-dosing with cell membrane permeabilizers
concentration of Tgase at the best MIC ([1]; in combination with 10000:4000:1 hexametaphosphate, phytic acid and chlorhexidine): 200 ppm
concentration of Tgase at the best MIC ([1]; in combination with Chlorhexidine): 200 ppm
concentration of Tgase at the best MIC ([1]; in combination with Polymyxin B): 12.5 ppm
